The source of these data is PMC11055835, “Small animal PET imaging with the ^68Ga-labeled pH (low) insertion peptide-like peptide YJL-4 in a triple-negative breast cancer mouse model” (EJNMMI Radiopharmacy and Chemistry, 2024).

Like-named read-outs stand apart in the source and are kept apart here. Peptide text beside a SMILES is read from it. * marks the point of attachment. X1 = O=C(O)CN1CCN(CC(=O)O)CC(Cc2ccc(NC(=S)*)cc2)N(CC(=O)O)CC1; NOTA = O=C(O)CN1CCN(CC(=O)O)CCN(CC(=O)*)CC1; Ahx = NCCCCCC(=O)O

Series [1] relates to MDA-MB-231 tumor-bearing nude mice. Nature of the series: Small animal PET imaging. Type of series: in vivo, BALB/c nude mice. The following applies: 2 and 4 h after injection, approx. 7.4 MBq/200 μL via tail vein, static 10-min PET, n = 3. As for the experimental part:
Human breast cancer cells (MDA-MB-231 cells from the Cell Bank of the Chinese Academy of Sciences) were cultured in high-glucose DMEM supplemented with 10% fetal bovine serum and 1% double antibiotic mixture (penicillin‒streptomycin mixture) at 37 °C in 5% CO2. Twenty-four four- to five-week-old female specific pathogen-free (SPF) BALB/c nude mice (Hangzhou Ziyuan Experimental Animal Technology Co., Ltd., China, license number: SCXK(Zhe) 2019–0004) were used to establish the MDA-MB-231 tumor model by subcutaneously inoculating 0.1 mL of cell suspension (50 µL of PBS + 50 µL of Matrigel) containing 1 × 10^6 MDA-MB-231 cells at the base of the right forelimb of each mouse. The animal studies were approved by the ethics committee of Qingdao University, and the management of the animals adhered to the animal ethics standards.
Six tumor-bearing nude mice were selected for imaging when the tumor diameter reached 0.8–1.0 cm. Mice were randomly divided into two groups: a YJL-4 group and a control group, with 3 mice per group; each group had two time points. Each tumor-bearing nude mouse was injected with approximately 7.4 MBq/200 μL of ^68Ga-YJL-4 or ^68Ga-kVar7 through the tail vein, and the mice were anesthetized with 2% isoflurane at 2 and 4 h after injection and imaged using static 10-min PET and moderate-resolution whole-body CT. […]

The nature of series [2]: Serum stability in human serum. It is filed as in vitro ADME. Here is the method:
(§1) Two hundred microliters of each ^68Ga-labeled peptide (18.5 MBq) was mixed with 1.0 mL of fresh human serum (or mouse serum) and incubated at 37 °C, and the radiochemical purity was detected at 30, 60, 120, and 240 min after mixing.

Series [3] in a line: Serum stability in mouse serum. Type of series: in vitro ADME. Here is the method:
as §1

Series [4] can be described thus: In vivo biodistribution. Also on record: species or system BALB/c nude mice. The following applies: female, BALB/c nude, mouse, iv, 1.85 MBq/200 uL, total radioactivity. From the text: Twenty-four four- to five-week-old female specific pathogen-free (SPF) BALB/c nude mice (Hangzhou Ziyuan Experimental Animal Technology Co., Ltd., China, license number: […] The animal studies were approved by the ethics committee of Qingdao University, and the management of the animals adhered to the animal ethics standards. Eighteen tumor-bearing nude mice were selected for in vivo biodistribution experiments when the tumor diameter reached 0.8–1.0 cm. Mice were randomly divided into two groups: a YJL-4 group and a control group with 9 mice per group; each group had three time points. […] The mice were humanely sacrificed 1 h, 2 h, or 4 h after injection. The brain, heart, lungs, liver, kidneys, stomach, small intestine, blood, muscles, bones, and tumor were collected and weighed, and the radioactivity was measured. The biodistribution results are expressed as the percent of the injected dose per gram of tissue (% ID/g).

The nature of series [5]: Serum protein binding. It is filed as in vitro ADME, mouse. Here is the method:
The resulting mixture was vortexed for 1 min and centrifuged (13,000 rpm) for 5 min. The supernatant was transferred to a 1.7 ml Eppendorf tube and then further centrifuged at 13,000 rpm for 2 min. The supernatant and sediment were collected separately, and the radioactivity was measured with a gamma counter to determine the serum protein binding of the radiotracer.

`CC(C)C[C@H](NC(=O)[C@H](CCCCN)NC(=O)[C@H](CC(C)C)NC(=O)[C@H](CC(C)C)NC(=O)[C@H](CC(C)C)NC(=O)[C@@H](NC(=O)[C@H](CCCCN)NC(=O)[C@@H](NC(=O)[C@@H]1CCCN1C(=O)[C@H](Cc1ccccc1)NC(=O)[C@H](CC(C)C)NC(=O)[C@H](Cc1c[nH]c2ccccc12)NC(=O)[C@H](CCCCN)NC(=O)[C@H](CC(C)C)NC(=O)[C@H](Cc1ccc(O)cc1)NC(=O)[C@H](CCCNC(=N)N)NC(=O)[C@H](C)NC(=O)[C@H](Cc1c[nH]c2ccccc12)NC(=O)[C@@H]1CCCN1C(=O)[C@H](CC(N)=O)NC(=O)[C@H](CCC(N)=O)NC(=O)[C@H](CCC(=O)O)NC(=O)[C@H](CCC(=O)O)NC(=O)[C@H](CS)NC(=O)[C@H](C)NC(=O)CN1CCN(CC(=O)O)CCN(CC(=O)O)CC1)[C@@H](C)O)[C@@H](C)O)C(N)=O` [^68Ga-kVar7, metal not drawn, reference compound] ({NOTA}-ACEEQNPWARYLKWLFPTKTLLLKL-NH2; N-terminus assumed): in series [1], the “Visualization of tumors by PET” value is on record as “not visualized”. In series [2] (200 µL labeled peptide (18.5 MBq) in 1.0 mL fresh human serum, 37 °C, 240 min), the “Radiochemical purity after incubation in human serum” value is listed as approximately 95%. Further, the “Radiochemical purity after incubation in mouse serum” value in series [3] (200 µL labeled peptide (18.5 MBq) in 1.0 mL mouse serum, 37 °C, 240 min) is reported as approximately 95%. In addition, the tissue uptake at 1 h in series [4] (1 h after injection, 1.85 MBq/200 μL via tail vein, mean ± SD, n = 3, read-out: Distribution in the blood) stood at 20.6 ± 4.73 %ID/g; in series [4] (1 h after injection, 1.85 MBq/200 μL via tail vein, mean ± SD, n = 3, read-out: Distribution in the liver) it was 21.3 ± 2.93 %ID/g. Further, the tissue uptake at 2 h in series [4] (2 h after injection, 1.85 MBq/200 μL via tail vein, mean ± SD, n = 3, read-out: Distribution in the blood) worked out at 9.88 ± 2.71 %ID/g; in series [4] (2 h after injection, 1.85 MBq/200 μL via tail vein, mean ± SD, n = 3, read-out: Distribution in the liver) it was 14.8 ± 3.87 %ID/g. In addition, the tissue uptake at 4 h in series [4] (4 h after injection, 1.85 MBq/200 μL via tail vein, mean ± SD, n = 3, read-out: Distribution in the blood) worked out at 3.17 ± 1.6 %ID/g; in series [4] (4 h after injection, 1.85 MBq/200 μL via tail vein, mean ± SD, n = 3, read-out: Distribution in the liver), 11 ± 2.77 %ID/g. Also, the fraction unbound at 30 min in series [5] (mouse serum, 37 °C, 30 min, 0.37 MBq, acetonitrile precipitation, gamma counter, mean ± SD, read-out: Serum protein binding rate (converted)) was 0.723. For the same compound, the “Serum protein binding rate” value in series [5] (mouse serum, 37 °C, 60 min, 0.37 MBq, acetonitrile precipitation, gamma counter, mean ± SD) is 27.89 ± 2.02%; in series [5] (mouse serum, 37 °C, 240 min, 0.37 MBq, acetonitrile precipitation, gamma counter, mean ± SD), 27.54 ± 0.86%. Besides, the fraction unbound at 120 min in series [5] (mouse serum, 37 °C, 120 min, 0.37 MBq, acetonitrile precipitation, gamma counter, mean ± SD, read-out: Serum protein binding rate (converted)) was 0.75.

In the case of `CC(C)C[C@H](NC(=O)[C@H](CC(=O)O)NC(=O)[C@H](CC(C)C)NC(=O)[C@H](CC(C)C)NC(=O)[C@H](CC(C)C)NC(=O)[C@@H](NC(=O)[C@H](CC(=O)O)NC(=O)[C@@H](NC(=O)[C@@H]1CCCN1C(=O)[C@H](Cc1ccccc1)NC(=O)[C@H](CC(C)C)NC(=O)[C@H](CC(C)C)NC(=O)[C@H](CC(=O)O)NC(=O)[C@H](C)NC(=O)[C@H](Cc1ccc(O)cc1)NC(=O)[C@H](CCCNC(=N)N)NC(=O)[C@H](C)NC(=O)[C@H](Cc1c[nH]c2ccccc12)NC(=O)[C@@H]1CCCN1C(=O)[C@H](CC(N)=O)NC(=O)[C@H](CCC(N)=O)NC(=O)[C@H](CC(=O)O)NC(=O)[C@H](CC(=O)O)NC(=O)[C@H](CS)NC(=O)[C@H](C)NC(=O)CCCCCNC(=S)Nc1ccc(CC2CN(CC(=O)O)CCN(CC(=O)O)CCN2CC(=O)O)cc1)[C@@H](C)O)[C@@H](C)O)C(N)=O` (stereo partly drawn) [^68Ga-YJL-4, metal not drawn] ({X1-Ahx}-ACDDQNPWARYADLLFPTDTLLLDL-NH2), the “Visualization of tumors by PET” value in series [1] is reported as “clearly visualized”. The “Radiochemical purity after incubation in human serum” value in series [2] is approximately 95%. The “Radiochemical purity after incubation in mouse serum” value in series [3] is listed as approximately 95%. In series [4] (Biodistribution in tumors), the tissue uptake at 1 h was 5.94 ± 1.27 %ID/g, the tissue uptake at 2 h came out at 6.72 ± 1.69 %ID/g and the tissue uptake at 4 h amounted to 4.54 ± 0.58 %ID/g. In series [4] (Distribution in the blood), the tissue uptake at 1 h is 19.6 ± 3.92 %ID/g, the tissue uptake at 2 h was found to be 8.23 ± 3.47 %ID/g and the tissue uptake at 4 h is 3.38 ± 1.91 %ID/g. Also, in series [4] (Distribution in the liver), the tissue uptake at 1 h turned out to be 20.5 ± 3.64 %ID/g, the tissue uptake at 2 h came to 14.5 ± 3.98 %ID/g and the tissue uptake at 4 h worked out at 10.2 ± 2.77 %ID/g. In series [5] (mouse, serum), this compound showed a fraction unbound at 30 min of 0.678 and a fraction unbound at 120 min of 0.685.
